Assay [1] deals with human αv-integrins (human) (UniProt P06756). Put plainly: cell-based or functional assay.
Assay [2] has as its target human αv-integrins (human), P06756. Put plainly: cell-based or functional assay.

Chain of human αv-integrins (human) (P06756 31-1048): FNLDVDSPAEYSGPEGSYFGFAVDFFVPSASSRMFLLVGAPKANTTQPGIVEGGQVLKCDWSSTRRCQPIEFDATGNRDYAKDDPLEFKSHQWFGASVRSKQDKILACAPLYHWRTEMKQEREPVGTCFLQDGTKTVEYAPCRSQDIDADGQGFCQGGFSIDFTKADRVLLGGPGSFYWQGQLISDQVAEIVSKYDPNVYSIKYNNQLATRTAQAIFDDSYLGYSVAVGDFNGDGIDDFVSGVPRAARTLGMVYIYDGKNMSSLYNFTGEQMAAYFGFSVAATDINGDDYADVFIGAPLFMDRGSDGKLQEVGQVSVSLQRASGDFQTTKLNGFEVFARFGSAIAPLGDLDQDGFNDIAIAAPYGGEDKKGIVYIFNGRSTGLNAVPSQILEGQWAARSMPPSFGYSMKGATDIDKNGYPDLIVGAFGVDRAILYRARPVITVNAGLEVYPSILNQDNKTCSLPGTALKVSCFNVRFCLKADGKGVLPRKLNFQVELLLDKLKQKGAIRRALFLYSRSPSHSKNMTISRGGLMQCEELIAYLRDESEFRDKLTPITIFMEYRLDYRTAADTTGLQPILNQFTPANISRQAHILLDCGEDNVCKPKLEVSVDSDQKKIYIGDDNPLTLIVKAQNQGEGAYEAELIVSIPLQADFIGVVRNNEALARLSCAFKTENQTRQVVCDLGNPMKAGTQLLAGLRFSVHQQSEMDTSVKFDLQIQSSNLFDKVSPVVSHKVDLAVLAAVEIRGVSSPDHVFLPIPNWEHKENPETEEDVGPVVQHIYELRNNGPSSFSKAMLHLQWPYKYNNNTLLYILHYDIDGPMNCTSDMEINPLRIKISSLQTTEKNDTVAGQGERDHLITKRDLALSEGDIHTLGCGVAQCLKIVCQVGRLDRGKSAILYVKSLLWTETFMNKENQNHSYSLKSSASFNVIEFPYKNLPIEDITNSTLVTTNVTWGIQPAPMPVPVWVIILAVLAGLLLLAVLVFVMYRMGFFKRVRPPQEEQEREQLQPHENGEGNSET
Chain of human αv-integrins (human), P06756 (P06756 31-1048): as above

In assay [1], DI-17E6 (antibody) displayed an EC50, blocking of VEGF-induced migration of human endothelial cells on vitronectin of 50 nM; an EC50, blocking of tumor cell adhesions of 0.1 to 50 nM; an EC50, inhibition of human endothelial cell adhesion to vitronectin of 10 nM; an IC50, growth of HUVEC on vitronectin (Alamar Blue) of 4 ng/mL.

B1: mouse mAb 17E6 (antibody, mouse IgG1, V domains shown)
VH: EPKSSDKTHTCPPCP
VL: WGQGTTVTVSS
B1 gave an IC50, growth of HUVEC on vitronectin (Alamar Blue) in assay [2] of 5 ng/mL.

Source of the values: US20100254977A1.
